In patent US20050260697:

Experiments:
[1] = biological target: human cardiac Troponin-T2, P45379
[2] = biological target: human cardiac Troponin-I3, P19429
[3] = biological target: human muscle Troponin-T3, P45378
[4] = biological target: human muscle Troponin-T1, P13805
human muscle Troponin-T1, P13805, sequence (P13805 whole entry): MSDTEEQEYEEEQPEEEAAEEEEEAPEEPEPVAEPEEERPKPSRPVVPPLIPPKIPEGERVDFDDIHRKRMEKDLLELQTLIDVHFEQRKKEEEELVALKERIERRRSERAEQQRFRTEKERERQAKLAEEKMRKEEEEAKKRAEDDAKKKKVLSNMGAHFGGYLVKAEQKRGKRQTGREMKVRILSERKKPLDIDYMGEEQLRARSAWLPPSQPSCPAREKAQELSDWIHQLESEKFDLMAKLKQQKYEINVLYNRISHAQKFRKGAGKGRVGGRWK

human muscle Troponin-T3, P45378, sequence (P45378 2-269): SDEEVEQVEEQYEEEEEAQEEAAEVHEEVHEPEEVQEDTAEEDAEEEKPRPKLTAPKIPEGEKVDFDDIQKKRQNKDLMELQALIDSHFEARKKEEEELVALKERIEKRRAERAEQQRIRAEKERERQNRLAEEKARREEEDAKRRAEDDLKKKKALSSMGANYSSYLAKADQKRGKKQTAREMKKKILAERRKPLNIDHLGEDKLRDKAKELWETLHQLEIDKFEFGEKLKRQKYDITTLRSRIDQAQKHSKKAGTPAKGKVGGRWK
human cardiac Troponin-I3, P19429, sequence (P19429 whole entry, looked up): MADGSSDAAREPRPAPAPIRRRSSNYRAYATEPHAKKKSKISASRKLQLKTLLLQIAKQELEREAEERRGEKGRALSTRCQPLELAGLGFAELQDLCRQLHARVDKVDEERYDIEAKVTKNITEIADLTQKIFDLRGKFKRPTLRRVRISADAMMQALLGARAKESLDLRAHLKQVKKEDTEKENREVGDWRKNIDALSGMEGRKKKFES

B1: caspase-3 (protein)
chain: SGISLDNSYKMDYPEMGLCIIINNKNFHKSTGMTSRSGTDVDAANLRETFRNLKYEVRNKNDLTREEIVELMRDVSKEDHSKRSSFVCVLLSHGEEGIIFGTNGPVDLKKITNFFRGDRCRSLTGKPKLFIIQACRGTELDCGIETDSGVDDDMACHKIPVEADFLYAYSTAPGYYSWRNSKDGSWFIQSLCAMLKQYADKLEFMHILTRVNRKVATEFESFSFDATFHAKKQIPCIVSMLTKELYFYH
[1]
  in vitro protease digestion, breakdown products on gels: human cardiac Troponin-T2 and Troponin-13 were cleaved by calpain-2 and caspase-3 proteases, producing unique breakdown products
  stated: cleaves (breakdown bands on a gel): the Caspase-3 lane shows a band d at the 25 kDa mark that is absent from the untreated lane and the Calpain-2 lanes; the Troponin-T2 band at 30 kDa is largely kept; no bands a, b, c
[2]
  in vitro protease digestion, breakdown products on gels: human cardiac Troponin-T2 and Troponin-13 were cleaved by calpain-2 and caspase-3 proteases, producing unique breakdown products

B2: calpain-1 (protein)
chain: SEEIITPVYCTGVSAQVQKQRARELGLGRHENAIKYLGQDYEQLRVRCLQSGTLFRDEAFPPVPQSLGYKDLGPNSSKTYGIKWKRPTELLSNPQFIVDGATRTDICQGALGDCWLLAAIASLTLNDTLLHRVVPHGQSFQNGYAGIFHFQLWQFGEWVDVVVDDLLPIKDGKLVFVHSAEGNEFWSALLEKAYAKVNGSYEALSGGSTSEGFEDFTGGVTEWYELRKAPSDLYQIILKALERGSLLGCSIDISSVLDMEAITFKKLVKGHAYSVTGAKQVNYRGQVVSLIRMRNPWGEVEWTGAWSDSSSEWNNVDPYERDQLRVKMEDGEFWMSFRDFMREFTRLEICNLTPDALKSRTIRKWNTTLYEGTWRRGSTAGGCRNYPATFWVNPQFKIRLDETDDPDDYGDRESGCSFVLALMQKHRRRERRFGRDMETIGFAVYEVPPELVGQPAVHLKRDFFLANASRARSEQFINLREVSTRFRLPPGEYVVVPSTFEPNKEGDFVLRFFSEKSAGTVELDDQIQANLPDEQVLSEEEIDENFKALFRQLAGEDMEISVKELRTILNRIISKHKDLRTKGFSLESCRSMVNLMDRDGNGKLGLVEFNILWNRIRNYLSIFRKFDLDKSGSMSAYEMRMAIESAGFKLNKKLYELIITRYSEPDLAVDFDNFVCCLVRLETMFRFFKTLDTDLDGVVTFDLFKWLQLTMFA
[3]
  in vitro protease digestion, breakdown products on Coomassie stained membrane and Western blot: human muscle Troponin-T1/3 was digested by calpain-1 protease, producing unique breakdown products
  stated: cleaves (breakdown bands on a stained membrane and a blot): Coomassie panel: the band at 35 kDa in the TnT lane weakens in the +Calpain-I lanes with time; band A of the blot, just below the intact band, is mapped to TnT3 (new N-terminus APKIPEGEK)
[4]
  in vitro protease digestion, breakdown products on Coomassie stained membrane and Western blot: human muscle Troponin-T1/3 was digested by calpain-1 protease, producing unique breakdown products
  stated: cleaves (breakdown bands on a stained membrane and a blot): Coomassie panel: the band at 35 kDa in the TnT lane weakens in the +Calpain-I lanes with time and a band near the 15 kDa mark appears; band B of the blot is mapped to TnT1 (new N-terminus AEQKRGKRQTGR)
